For one molecule, Kd results are on record in patent US20240067706A1 (published 2024).

What all share (experiment): BLI
A general note: In BLI a coated tip is dipped into the sample, and binding shifts an interference pattern.

Test [1] has as its target SARS-CoV S protein (soluble, purified in vitro) (SARS-CoV, UniProt P59594 14-1195).
The target in test [2] is T1, MERS-CoV S protein (soluble, purified in vitro) (MERS-CoV, UniProt K9N5Q8 18-1297).
T1 chain: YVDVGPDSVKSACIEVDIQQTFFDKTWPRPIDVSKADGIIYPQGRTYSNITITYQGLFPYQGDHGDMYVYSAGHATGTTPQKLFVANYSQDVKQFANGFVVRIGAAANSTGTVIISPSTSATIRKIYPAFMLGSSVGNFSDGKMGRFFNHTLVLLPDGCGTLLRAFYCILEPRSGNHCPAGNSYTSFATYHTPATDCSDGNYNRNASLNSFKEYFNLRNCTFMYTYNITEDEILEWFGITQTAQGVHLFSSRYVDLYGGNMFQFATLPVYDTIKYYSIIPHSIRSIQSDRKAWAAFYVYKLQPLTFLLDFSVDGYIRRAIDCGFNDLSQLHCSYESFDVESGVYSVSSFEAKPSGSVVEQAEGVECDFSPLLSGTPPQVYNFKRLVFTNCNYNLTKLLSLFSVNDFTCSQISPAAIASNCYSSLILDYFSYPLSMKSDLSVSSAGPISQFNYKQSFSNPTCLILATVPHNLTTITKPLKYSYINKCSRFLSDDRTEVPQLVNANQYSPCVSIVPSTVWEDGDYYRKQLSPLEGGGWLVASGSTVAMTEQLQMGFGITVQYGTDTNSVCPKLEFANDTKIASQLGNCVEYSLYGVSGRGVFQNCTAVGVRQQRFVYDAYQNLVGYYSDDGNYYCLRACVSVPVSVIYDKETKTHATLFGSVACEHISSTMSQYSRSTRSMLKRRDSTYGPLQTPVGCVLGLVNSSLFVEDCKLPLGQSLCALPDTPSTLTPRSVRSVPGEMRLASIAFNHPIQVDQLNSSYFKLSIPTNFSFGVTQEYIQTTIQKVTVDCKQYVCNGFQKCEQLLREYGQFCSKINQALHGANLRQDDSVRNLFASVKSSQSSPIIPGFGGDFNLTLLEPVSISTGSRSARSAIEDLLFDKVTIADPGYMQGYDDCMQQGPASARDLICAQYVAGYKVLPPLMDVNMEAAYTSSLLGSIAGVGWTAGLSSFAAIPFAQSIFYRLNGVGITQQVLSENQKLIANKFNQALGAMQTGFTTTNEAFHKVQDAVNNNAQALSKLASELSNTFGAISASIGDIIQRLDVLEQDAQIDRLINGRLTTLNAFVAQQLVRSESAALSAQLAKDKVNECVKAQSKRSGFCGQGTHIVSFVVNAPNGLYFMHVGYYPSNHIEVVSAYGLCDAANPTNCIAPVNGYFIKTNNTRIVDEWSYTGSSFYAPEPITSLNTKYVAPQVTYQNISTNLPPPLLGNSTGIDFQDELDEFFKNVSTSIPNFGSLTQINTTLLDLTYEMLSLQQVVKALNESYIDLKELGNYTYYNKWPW

Test [3] has as its target SARS-CoV-2 S protein (full-length S protein, soluble, purified in vitro) (SARS-CoV-2, UniProt P0DTC2 16-1213).

B1: fully human monoclonal antibody 76E1 (antibody, V domains shown)
VH: EVQLVESGGGVVQPGGSLRLSCEASGFSFKDYGMHWIRQTPGKGLEWISRISGDTRGTSYVDSVKGRFIVSRDNSRNSLFLQMNSLRSEDTALYYCAALVIVAAGDDFDLWGQGTVVTVSS
VL: QSALTQPLSVSGSPGQSVTISCTGSSSDIGSYNFVSWYRQYPGKAPKVMIYEVNKRPSGVPVRFSGSKSGNTASLTVSGLQHEDEADYYCCSYGGRNNLIFGGGTKLTVL
The Kd is the equilibrium constant for the complex coming apart. A higher Kd goes with lower affinity. In the case of B1, the Kd in test [1] was 0.107 nM; in test [2] it was 1.03 nM; in test [3], 0.431 nM.
